Laboratory results as given in article doi:10.1101/2025.06.12.659326.

Target: dynein light intermediate chain 2 (LIC2)
Experiment: anti-HA IP of LIC2-HA, GFP blot
Settings: reference: GFP-WT OCLN; sites S490

| Substance | other: reduction vs WT |
| --- | --- |
| occludin (OCLN) (from UniProt Q16625) GFP-S490D | 25% |
| occludin (OCLN) (from UniProt Q16625) GFP-S490A | 25% |
